Values of other authors as cited in patent US11866502B2, “Anti-FGFR2 antibodies and methods of use thereof” (Regeneron Pharmaceuticals, Inc., priority 2020, dated 2024).

System: xenograft models
Details: several xenograft models; cited from earlier work

B1: Aprutumab-TTC: anti-FGFR2 antibody, a chelator moiety covalently conjugated to the antibody, and the alpha particle-emitting radionuclide thorium-227 (conjugate, chains of the INN, looked up)
VH: EVQLLESGGGLVQPGGSLRLSCAASGFTFSSYAMSWVRQAPGKGLEWVSAISGSGTSTYYADSVKGRFTISRDNSKNTLYLQMNSLRAEDTAVYYCARVRYNWNHGDWFDPWGQGTLVTVSS
VL: QSVLTQPPSASGTPGQRVTISCSGSSSNIGNNYVSWYQQLPGTAPKLLIYENYNRPAGVPDRFSGSKSGTSASLAISGLRSEDEADYYCSSWDDSLNYWVFGGGTKLTVL
modifications: chelator conjugate with thorium-227
  tumor growth in xenograft models: inhibited tumor growth
